Source: publication PMC4973555, “Engineering Saccharomyces cerevisiae with the deletion of endogenous glucosidases for the production of flavonoid glucosides” (Microbial Cell Factories, 2016)

B1: SbGT30 (Scutellaria baicalensis) (protein)
chain: MGQLHIVLVPMIAHGHMIPMLDMAKLFSSRGVRTTIIATPAFAEPIRKARESGHDIGLTTTKFPPKGSSLPDNILSLDQVTHDLLPHFFRALELLQEPVEEIMEDLKPNCLVSDMFLPWTTDSAAKFGIPRLLFHGTSLFARCFAEQMSLQKPYKNVSSDSEPFVLRGLPHEVSFVRTQIPGYELQEGGDDAFSKMAKQMRDADKKSYGDVINSFEELESEYVDHYKNVFGKKAWHIGPLSLCNNRAEQKSPIDDHECLAWLNSKKPNSVVYMCFGSMATFSPAQLHETAVGLESSGQDFIWVVRNGGENEDWLPQGFEERIKGKGLMIRGWAPQVVILDHPSTGAFVTHCGWNSTLEGICAGLPMVTWPVFAEQFYNEKLVTEVLKTGVSVGNKKWQRVGEWVGSEAVKEAVEWVMVGDGAAEMRSRANYYKEMARKAVEDGGSSYNNLNALIQELSAYVPPMKQGLN
notes: full-length cDNA in pTWIN1B; E. coli BL21 (DE3)
B2: SbGT34 (Scutellaria baicalensis) (protein)
chain: MGQLHIVLVPMIAHGHMIPMLDMAKLFSSRGVKTTIIATPAFAEPIRKARESGHDIGLTTTKFPPKGSSLPDNIWSLDQVTDDLLPHFFRALELLQEPVEEIMEDLKPNCLVSDMFLPWTTDSAAKFGIPRLLFHGTSLFARCFAEQMSLQKPYKNVSSDSEPFVLRGLPHEVSFVRTQIPGYELQEGGDDAFSKMAKQMRDADKKSYGDVINNFEELESEYVDHYKNVFGKKAWHIGPLSLCNNRAEQKSPIDDHECLAWLNSKKPNSVVYMCFGSMATFTPAQLHETAVGLESSGQDFIWVVRNGGENEDWLPQGFEERIKGKGLMIRGWAPQVMILDHPSTGAFVTHCGWNSTLEGICAGLPMVTWPVFAEQFYNEKLVTEVLKTGVSVGNKKWQRVGEGVGSEAVKEAVERVMVGDGAAEMRSRAIYYKEMARKAVEEGGSSYNNLNALIEELSAYVPPMKQGLN
notes: as for B1
B3: SbGT56 (Scutellaria baicalensis) (protein)
chain: MGQLHIVLVPMIAHGHMIPMLDMAKLFSSRGVKTTIIATPAFAEPIRKARESGHDIGLTTTKFPPKGSSLPDNIRSLDQVTGDLLPHFFRALELLQEPVEEIMEDLKPNCLVSDMFLPWTTDSAAKFGIPRLVFHGTSLFARCFSEQMSIQKPYKNVSSDSEPFVLRGLPHEVSFVRTQIPDYELQEGGDDAFSKMAKQMRDADKKSYGDVINSFEELESEYADYNKNVFGKKAWHIGPLKLFNNRAEQKSSQRGKESAIDDHECLAWLNSKKPNSVVYMCFGSMATFTPAQLHETAVGLESSGQDFIWVVRNGGKNEDWLPQGFEERIKGKGLMIRGWAPQVMILDHPSTGAFVTHCGWNSTLEGICAGLPMVTWPVFAEQFYNEKLVTEVLKTGVSVGNKKWQRVGEGVGSEAVKEAVERVMVGDGAAEMRSRAVYYKEMARKAVEEGGSSYNNLNALIQELSAYVPPMKQGLN
notes: as for B1

Each protein was assayed on O=c1cc(-c2ccc(O)cc2)oc2cc(O)c(O)c(O)c12 (assay: HPLC glucosyltransferase assay, Lineweaver-Burk plot). Details: 2 mM UDP-glucose (saturating), 50 mM Tris-HCl pH 7.5, 30 °C.
Format: biochemical, Scutellaria baicalensis
In the case of B1, the Km is reported as 188 µM. In the case of B2, the Km is reported as 121 µM. In the case of B3, the Km is reported as 222 µM.
